The source of these data is publication PMC11446271.

In data set [1] the test system is Pab1p (poly(A)-binding protein) (Saccharomyces cerevisiae). The data set can be described thus: single-molecule eIF1 dwell time, hyperbolic fit. To be noted: 5' cap, 3' poly(A) tail.
The test system is the same in data set [2]. The data set can be described thus: EMSA. A general note: A gel shift assay detects complexes by their altered migration in electrophoresis.

For orientation: Kd means the concentration at which binding is half-saturated. Low readings indicate tighter binding, high ones weaker binding. Regarding PAB1 mRNA, capped and poly(A)-tailed, in data set [1], the Kd was 0.013 µM.

On to PAB1 mRNA, non-polyadenylated, for which the Kd in data set [2] came out at 0.025 µM.
